Reference: patent US7893197B2, “Relaxin-3 chimeric polypeptides and their preparation and use” (Janssen Pharmaceutica N.V., priority 2005, dated 2011)

Tests used:
GPCR142 = target: T1, GPCR142 (Homo sapiens, UniProt Q8TDU9, L329S); test: Radioligand competition binding, [125I]-relaxin-3, membranes of transfected COS-7 cells; conditions: for binding / affinity for GPCR142, in words: highest concentration 1 μM
T1 construct: expressed in transfected cells
From the text: FIGS. 3A-3D illustrate the characterization of various relaxin-3 chimeric polypeptides using radioligand binding assays. Different relaxin-3 chimeric polypeptides were characterized for their receptor binding properties for human recombinant GPCR135 (FIG. 3A), GPCR142 (FIG. 3B), LGR7 (FIG. 3C), or LGR8 (FIG. 3D). For GPCR135, GPCR142, and LGR7, [^125I]-relaxin-3 was used as the radioligand at a final concentration of 100 pM. Different unlabeled peptides were used in the binding assay as the competitors. For LGR8, [^125I]-INSL3 was used as the radioligand at a final concentration of 100 pM. Different unlabeled peptides including relaxin-3 chimeras at various concentrations were added to the binding assay as the competitors. Data represent mean±SEM (n=3).
Radioligand binding assays for GPCR135 and GPCR142 were performed as previously described (Liu et al., 2003, Journal of Biological Chemistry, 278:50754-50764 and Liu et al., 2003, Journal of Biological Chemistry, 278:50765-50770). Membranes from COS-7 cells transiently transfected with either the GPCR135 expression vector or the GPCR142 expression vector, each described supra, were incubated with [^125I]-relaxin-3 at a final concentration 100 pM in 96-well plates. Peptides for competition binding studies were added to the binding mix (final volume: 200 μl) in binding buffer [50 mM Tris-HCl, pH 7.5, 5 mM EDTA, 1% bovine serum albumin, 0.1% protease inhibitor cocktails (Sigma)]. The binding mixtures were incubated at room temperature for 1 hour, filtered through GFC plates (Packard) pre-saturated with 0.3% Polyethylenimine (Sigma), and washed with cold washing buffer (50 mM Tris-HCl, pH 7.5, 5 mM EDTA). Microscint-40 was added to each well and the bound [^125I]-relaxin-3 was counted in a scintillation counter (TopCount/NTX, Packard).

GPCR135 = target: T2, GPCR135 (Homo sapiens, UniProt Q9NSD7); test: as above; conditions: for binding / affinity for GPCR135, in words: highest concentration 1 μM
T2 construct: expressed in transfected cells
T2 sequence (Q9NSD7 1-469): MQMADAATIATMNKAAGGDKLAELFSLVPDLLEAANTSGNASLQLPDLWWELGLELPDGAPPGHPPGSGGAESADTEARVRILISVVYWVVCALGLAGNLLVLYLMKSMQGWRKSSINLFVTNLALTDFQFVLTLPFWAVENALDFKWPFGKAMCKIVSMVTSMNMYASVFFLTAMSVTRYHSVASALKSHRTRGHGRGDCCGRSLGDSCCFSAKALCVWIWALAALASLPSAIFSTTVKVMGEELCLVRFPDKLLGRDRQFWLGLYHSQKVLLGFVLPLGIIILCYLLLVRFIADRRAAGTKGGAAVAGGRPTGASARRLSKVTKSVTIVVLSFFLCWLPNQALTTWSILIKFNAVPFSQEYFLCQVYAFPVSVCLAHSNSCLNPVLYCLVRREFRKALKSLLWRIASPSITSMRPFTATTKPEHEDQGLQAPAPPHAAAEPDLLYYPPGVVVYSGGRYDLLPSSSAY
Procedure: For GPCR135, GPCR142, and LGR7, [^125I]-relaxin-3 was used as the radioligand at a final concentration of 100 pM. Different unlabeled peptides were used in the binding assay as the competitors. […] Different unlabeled peptides including relaxin-3 chimeras at various concentrations were added to the binding assay as the competitors.

LGR8 = target: T3, LGR8 (Homo sapiens, UniProt Q8WXD0); test: Stimulation of β-galactosidase expression in SK-N-MC/β-gal cells; type: cell-based; conditions: highest concentration tested 1 μM
T3 construct: Human LGR8 cDNA containing the complete coding region was PCR amplified; expressed in transfected cells
T3 sequence (Q8WXD0 whole entry): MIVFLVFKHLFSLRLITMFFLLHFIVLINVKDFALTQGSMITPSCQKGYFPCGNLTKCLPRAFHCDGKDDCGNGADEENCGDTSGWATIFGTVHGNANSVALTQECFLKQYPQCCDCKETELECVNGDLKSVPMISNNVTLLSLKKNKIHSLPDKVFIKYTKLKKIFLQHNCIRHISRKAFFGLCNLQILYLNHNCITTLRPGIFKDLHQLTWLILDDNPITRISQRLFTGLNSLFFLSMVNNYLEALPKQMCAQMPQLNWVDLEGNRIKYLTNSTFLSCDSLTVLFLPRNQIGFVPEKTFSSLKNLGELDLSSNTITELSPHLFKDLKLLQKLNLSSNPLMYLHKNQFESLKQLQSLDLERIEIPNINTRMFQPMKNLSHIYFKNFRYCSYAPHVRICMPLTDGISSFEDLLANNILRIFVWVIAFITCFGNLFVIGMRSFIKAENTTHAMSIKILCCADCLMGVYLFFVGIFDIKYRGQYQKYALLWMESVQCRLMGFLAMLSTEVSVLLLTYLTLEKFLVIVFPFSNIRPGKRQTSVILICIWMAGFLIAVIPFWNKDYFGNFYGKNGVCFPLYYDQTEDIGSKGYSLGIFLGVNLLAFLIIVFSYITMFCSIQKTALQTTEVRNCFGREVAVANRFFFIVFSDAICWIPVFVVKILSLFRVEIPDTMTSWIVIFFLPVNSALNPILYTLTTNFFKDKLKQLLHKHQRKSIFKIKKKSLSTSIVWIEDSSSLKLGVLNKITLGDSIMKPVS
Procedure: FIGS. 1A-1D show the activation of GPCR135 and GPCR142 by relaxin-3 B-chain, but not of LGR7 or LGR8. In FIG. 1A, SK-N-MC/β-gal cells expressing human GPCR135 were stimulated with relaxin-3, relaxin-3 B-chain, porcine relaxin, or INSL3 at various concentrations to inhibit the forskolin stimulated β-galactosidase expression. Forskolin was added to cells at a final concentration of 5 μM to stimulate the β-galactosidase expression. FIG. 1B depicts results for SK-N-MC/β-gal cells expressing human GPCR142 stimulated as in FIG. 1A. In FIG. 1C, SK-N-MC/β-gal cells expressing human LGR7 were stimulated with relaxin-3, relaxin-3 B-chain, porcine relaxin, and INSL3 at various concentrations to induce the β-galactosidase expression. The intracellular β-galactosidase activities were measured by a colorimetric assay using CRGP as the substrate and reading the absorbance at a wavelength of 570 nm. For FIG. 1D, SK-N-MC/β-gal cells expressing human LGR8 were stimulated as in FIG. 1C.
FIGS. 4A-4D illustrate the evaluation of the agonist activity of relaxin-3 chimeric polypeptides in biofunctional assays. Different chimeric polypeptides at various concentrations were added to SK-N-MC/β-gal cells expressing human GPCR135 (FIG. 4A) or GPCR142 (FIG. 4B) to inhibit forskolin stimulated β-galactosidase expression. Human relaxin-3 was used as the positive control. In parallel, chimeric polypeptides at various concentrations were added to SK-N-MC/β-gal cells expressing human LGR7 (FIG. 4C) and LGR8 (FIG. 4D) to stimulate β-galactosidase expression. Relaxin-3 and INSL3 were used as positive controls for LGR7 and LGR8, respectively. Intracellular β-galactosidase activity was measured by a colorimetric assay using CRGP as the substrate and reading the absorbance at wavelength of 570 nm. Data represent mean±SEM (n=3).
It has been shown that synthetic human relaxin-3 B-chain alone, but not A-chain, is an agonist for both GPCR135 and GPCR142 (Liu et al., 2003, Journal of Biological Chemistry, 278:50754-50764 and Liu et al., 2003, Journal of Biological Chemistry, 278:50765-50770). Those studies were repeated herein in SK-N-MC/β-gal cells, which harbor a β-galactosidase gene under the control of a cAMP responsive element (CRE) (Liu et al., 2001, Molecular Pharmacology, 59:420-426). In such SK-N-MC/β-gal cells, an increase in intracellular cAMP concentration leads to increased β-galactosidase gene expression, the activity of which is measured using Chlorophenol Red-β-D-Galactopyranoside (CPRG) as the substrate.
The inventive chimeric polypeptides were each independently tested for their ability to activate either GPCR135, GPCR142, LGR7, or LGR8, respectively, in separate pools of SK-N-MC/β-gal cells (see supra), each pool stably expressing one of the respective receptors, as indicated (FIG. 4).
Cells were seeded in 96-well tissue culture plate at a density of 30,000 cells/well in MEM plus 10% fetal serum, sodium pyruvate, penicillin, streptomycin, and G418 (400 mg/L). For cells expressing GPCR135 or GPCR142, forskolin was added to cells at a final concentration of 5 μM to stimulate intracellular cAMP accumulation. Different concentrations of each of the inventive polypeptides were then added to the cells to inhibit the forskolin induced cAMP accumulation. For cells expressing LGR7 or LGR8, intracellular cAMP was stimulated with each of the inventive chimeric polypeptides at various concentrations.
For all cells, after adding the chimeric polypeptides, cells were incubated for 6 additional hours in 37° C. incubator. The media was then aspirated and the β-galactosidase activities measured as previously described (Liu et al., 2001, Molecular Pharmacology, 59:420-426). The results were analyzed by Prism 3.0 software. […]

T1 sequence (Q8TDU9 whole entry L329S): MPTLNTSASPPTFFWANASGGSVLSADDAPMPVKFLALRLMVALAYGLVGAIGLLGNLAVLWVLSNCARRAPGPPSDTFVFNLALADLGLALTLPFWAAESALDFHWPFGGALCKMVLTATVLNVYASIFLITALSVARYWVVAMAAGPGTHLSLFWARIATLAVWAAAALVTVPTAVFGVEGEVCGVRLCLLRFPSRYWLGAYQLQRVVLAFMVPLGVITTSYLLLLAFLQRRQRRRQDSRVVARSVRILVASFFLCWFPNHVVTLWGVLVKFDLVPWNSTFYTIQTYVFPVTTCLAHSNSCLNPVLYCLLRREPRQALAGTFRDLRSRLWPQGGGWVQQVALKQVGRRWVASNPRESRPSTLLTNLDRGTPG

| Substance | binding / affinity for GPCR142, in words (GPCR142) | binding / affinity for GPCR135, in words (GPCR135) | activation of LGR8, in words (LGR8) | affinity for GPCR142 (GPCR142; discussion) | affinity for GPCR135 (GPCR135; discussion) |
| --- | --- | --- | --- | --- | --- |
| R3/I4: chimeric polypeptide: human relaxin-3 B-chain and INSL4 A-chain; mature polypeptide SEQ ID NO:22 (RAAPYGVRLCGREFIRAVIFTCGGSRWFDPFCCEVICDDGTSVKLC; Human Relaxin-3/Insulin-like 4 chimeric mature polypeptide) | marginal binding at the highest concentration (1 μM) | marginal binding at the highest concentration (1 μM) | no activity | – | – |
| R3/I6: chimeric polypeptide: human relaxin-3 B-chain and INSL6 A-chain; mature polypeptide SEQ ID NO:24 (RAAPYGVRLCGREFIRAVIFTCGGSRWGYSEKCCLTGCTKEELSIAC; Human Relaxin-3/Insulin-like 6 chimeric mature polypeptide) | – | – | inactive | 10 to 15 nM | 10 to 15 nM |
| R3/I5: chimeric polypeptide: human relaxin-3 B-chain and INSL5 A-chain; mature polypeptide SEQ ID NO:23 (RAAPYGVRLCGREFIRAVIFTCGGSRWQDLQTLCCTDGCSMTDLSALC; Human Relaxin-3/Insulin-like 5 chimeric mature polypeptide) | low nanomolar range | subnanomolar | inactive | – | – |
